Measurements reported in publication PMC4174979.

Biological target: WRN_(235–526) (human)
Assay: SEC

Sequence of WRN_(235–526) (domain or fragment) (Q14191 2-1432): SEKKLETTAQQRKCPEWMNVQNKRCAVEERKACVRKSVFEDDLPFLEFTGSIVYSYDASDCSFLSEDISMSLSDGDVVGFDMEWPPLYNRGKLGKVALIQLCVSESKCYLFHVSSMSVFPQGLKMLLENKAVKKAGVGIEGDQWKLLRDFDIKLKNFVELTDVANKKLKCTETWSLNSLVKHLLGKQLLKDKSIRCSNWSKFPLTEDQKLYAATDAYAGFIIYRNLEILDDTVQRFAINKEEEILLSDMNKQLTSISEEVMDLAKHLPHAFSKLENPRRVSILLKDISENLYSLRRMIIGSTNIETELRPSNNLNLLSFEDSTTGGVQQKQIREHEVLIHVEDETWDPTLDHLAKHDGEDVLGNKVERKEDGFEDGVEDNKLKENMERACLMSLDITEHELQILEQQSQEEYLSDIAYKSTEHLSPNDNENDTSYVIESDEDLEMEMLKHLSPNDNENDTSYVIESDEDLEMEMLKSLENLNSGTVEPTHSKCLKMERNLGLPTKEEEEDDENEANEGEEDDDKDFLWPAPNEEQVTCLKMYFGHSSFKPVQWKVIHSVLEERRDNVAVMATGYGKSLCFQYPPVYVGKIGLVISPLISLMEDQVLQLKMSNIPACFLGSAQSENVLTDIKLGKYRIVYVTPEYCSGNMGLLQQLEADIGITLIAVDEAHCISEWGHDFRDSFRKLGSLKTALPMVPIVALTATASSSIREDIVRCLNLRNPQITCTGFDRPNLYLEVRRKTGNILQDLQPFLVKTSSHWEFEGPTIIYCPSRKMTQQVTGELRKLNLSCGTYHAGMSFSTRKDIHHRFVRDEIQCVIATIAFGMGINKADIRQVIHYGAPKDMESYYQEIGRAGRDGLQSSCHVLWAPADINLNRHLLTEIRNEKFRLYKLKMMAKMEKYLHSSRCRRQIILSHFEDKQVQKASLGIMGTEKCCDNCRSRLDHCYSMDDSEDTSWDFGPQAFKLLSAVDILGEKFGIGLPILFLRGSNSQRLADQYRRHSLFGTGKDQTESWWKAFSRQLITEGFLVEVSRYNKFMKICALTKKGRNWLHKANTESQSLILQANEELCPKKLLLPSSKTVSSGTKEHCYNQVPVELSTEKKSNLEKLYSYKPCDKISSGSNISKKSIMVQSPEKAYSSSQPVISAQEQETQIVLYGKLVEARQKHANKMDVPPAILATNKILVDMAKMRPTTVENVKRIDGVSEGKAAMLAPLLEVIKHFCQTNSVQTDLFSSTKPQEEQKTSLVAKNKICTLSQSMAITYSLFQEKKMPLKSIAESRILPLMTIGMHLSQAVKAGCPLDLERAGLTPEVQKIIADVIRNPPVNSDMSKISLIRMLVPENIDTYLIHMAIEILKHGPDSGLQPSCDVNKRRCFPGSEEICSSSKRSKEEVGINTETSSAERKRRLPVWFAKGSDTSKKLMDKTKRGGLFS

WRN_(235–526) (domain or fragment)
stoichiometry N: 6
